Test system: CD3-Fc-fusion protein
Assay: ELISA analysis of TCO- and DBCO-conjugated scFv specific for CD3
Format: binding
Conditions: anti-PD1 scFv negative control, anti-CD3 scFv positive control
Experimental: The DNA sequence encoding SEQ ID NO: 42 was synthesized and expressed as in the above Examples. The sequences of VL and VH of scFv specific for CD3 were those of VL and VH of mutated Teplizumab. For the conjugation with Mal-PEG3-TCO and Mal-PEG5-DBCO (Conju-probe, Inc.), the cysteine residue at the C-terminal end of the purified scFv of the mutated teplizumab was reduced by incubating 5 mM DTT at room temperature for 4 hours with gentle shaking. The buffer of reduced anti-CD3 scFv was exchanged to sodium phosphate buffer (100 mM sodium phosphate, pH7.0, 50 mM NaCl, and 5 mM EDTA) by using NAP-10 Sephadex G-25 column. After the reduction reaction and buffer exchange, conjugation was conducted overnight at room temperature in a reaction molar ratio of 1:1 ([Mal-PEG3-TCO or Mal-PEG5-DBCO:[scFv]]. The excess crosslinker was removed by a desalting column and the TCO-conjugated and DBCO-conjugated scFv products were analyzed.
The purity of TCO-conjugated scFvs specific for CD3 was identified through Coomassie staining of 12% SDS-PAGE (data not shown). FIG. 23A and […] show, respectively, the ELISA analysis of TCO-conjugated scFv and DBCO-conjugated scFv specific for CD3, in which anti-PD1 scFv and anti-CD3 scFv were used as a negative control and positive control, respectively.

Sequence of CD3-Fc-fusion protein (P07766 23-126 limits assumed): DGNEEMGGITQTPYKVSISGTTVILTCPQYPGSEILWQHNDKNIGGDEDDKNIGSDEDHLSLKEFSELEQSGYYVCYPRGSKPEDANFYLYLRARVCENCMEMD

| binding to CD3-Fc-fusion protein (ELISA) | Molecule |
| --- | --- |
| bound to CD3-Fc-fusion protein | TCO-conjugated scFv: scFv of mutated teplizumab (SEQ ID NO: 42) conjugated with Mal-PEG3-TCO (protein, Mal-PEG3-TCO conjugate; mutated teplizumab scFv) scFv: DIQMTQSPSSLSASVGDRVTITCSASSSVSYMNWYQQTPGKAPKRWIYDTSKLASGVPSRFSGSGSGTDYTFTISSLQPEDIATYYCQQWSSNPFTFGQGTKLQITRGSTSGSGKPGSGEGSTKGQVQLVQSGGGVVQPGRSLRLSCKASGYTFTRYTMHWVRQAPGKGLEWIGYINPSRGYTNYNQKVKDRFTISRDNSKNTAFLQMDSLRPEDTGVYFCARYYDDHYSLDYWGQGTPVTVSSGGGGSGGGGSC |
| bound to CD3-Fc-fusion protein | DBCO-conjugated scFv specific for CD3: scFv of mutated teplizumab (SEQ ID NO: 42) conjugated with Mal-PEG5-DBCO (protein, Mal-PEG5-DBCO conjugate; mutated teplizumab scFv) scFv: DIQMTQSPSSLSASVGDRVTITCSASSSVSYMNWYQQTPGKAPKRWIYDTSKLASGVPSRFSGSGSGTDYTFTISSLQPEDIATYYCQQWSSNPFTFGQGTKLQITRGSTSGSGKPGSGEGSTKGQVQLVQSGGGVVQPGRSLRLSCKASGYTFTRYTMHWVRQAPGKGLEWIGYINPSRGYTNYNQKVKDRFTISRDNSKNTAFLQMDSLRPEDTGVYFCARYYDDHYSLDYWGQGTPVTVSSGGGGSGGGGSC |

— patent US10010626B2, “Molecular constructs with targeting and effector moieties” (Immunwork Inc., priority 2015, dated 2018)
